Assay results from patent US20070166779.

Tests used:
[1] = test system: SLPI present in human saliva
Sequence of SLPI present in human saliva (chain, as listed by the source): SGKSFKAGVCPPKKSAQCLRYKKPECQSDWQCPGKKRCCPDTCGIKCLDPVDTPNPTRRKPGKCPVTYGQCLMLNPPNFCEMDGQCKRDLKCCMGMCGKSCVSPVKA

Sequence of tryptase (chain, as listed by the source): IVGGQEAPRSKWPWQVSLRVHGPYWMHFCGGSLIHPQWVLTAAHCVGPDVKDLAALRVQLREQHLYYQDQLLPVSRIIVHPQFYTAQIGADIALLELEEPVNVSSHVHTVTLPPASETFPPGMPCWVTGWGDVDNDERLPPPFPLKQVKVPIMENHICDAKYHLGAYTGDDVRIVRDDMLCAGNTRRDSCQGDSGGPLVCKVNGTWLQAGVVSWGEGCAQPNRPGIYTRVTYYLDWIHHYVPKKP

## tryptase
Recombinant human SLPI
  cleavage of rSLPI, LC/MS (1 ug rSLPI, 50 ng protease, 5 hours): did not result in the formation of the second peak
  cleavage of the reduced form of rSLPI: Reduction of the rSLPI samples in the presence of the proteases did result in cleavage of the SLPI protein
[1]
  cleavage of SLPI in human saliva, Western analysis: The larger SLPI cleavage product was not observed when the saliva samples were incubated with cathepsin G, tryptase and proteinase 3
